# Columns and labels:
# [1] = biological target: the molecule itself; assay: gel formation + electron microscopy + thioflavin-T fluorescence; synthetic peptide at 10 μM, pH 4.5, citrate buffer, room temperature (25°C), four weeks
# [2] = biological target: the molecule itself; assay: thioflavin-T fluorescence; fresh rBap_B at 0.01-0.036 mg/ml, 25 μM ThT, 25°C, pH 4.5, 5 min
Protein,binding result [1],binding result [2]
"TVGNIISNAG (Bap of Staphylococcus aureus, stretch of region B, aa 487 to 496; source: synthetic peptide, bought: CASLO ApS) [Bap_B amyloid peptide I (aa 487 to 496)]",binds,–
"purified recombinant Bap_B protein (region B of Bap of S. aureus V329, amino acids 361-819, N-terminal hexahistidine tag) (domain or fragment, Biofilm associated protein Bap of Staphylococcus aureus V329, region B, amino acids 361-819 (1377 bp fragment cloned in pET46-Ek/LIC); The results give domain B as residues 362-819 (chimeras); the methods give 361-819 for the recombinant protein; also called B domain of Bap) QKSLGYTDNYTFASMLFDPGKLDSDDALNSNIIPFDLHSYMSGANSGNRYKIDLKLDPIIAEHVTKISANPSGSNKPVEFVRNKDENGNLTDTWEVNFIRANDGLFGGAEILSQYTAKNGKIELDDTVGNIISNAGNLSNNKLNHQVFVRDSRENKIVRTSESSGYFLTKADDDLVNLENNVSTENNNAFKASSGSATYNENVGEFGGILIDQQIMKNGIFSYSKTKANQWAYNYQIDKDLLPYIEGVELHQYDYKGLNGFDKNYDAKNKVADLTIDEVGNGTITSDNLNKLIEFNNALPETVGVRVVLKLNKSVNNILTKDAKYDSEGNLIRETTKQKEDFTFAGYLTDSKGALINNTLGTSTLALQDYDKDGLLDRYERQLSLSDAENEDTDGDGKNDGDEVVNYKTSPLVGKPQAADITTEDTVVSGSVPLKEGAATQTAKVINAEGTTVGTATVN",–,binds
"GIFSYS (Bap of Staphylococcus aureus, stretch of region B, aa 579 to 584; also called GIFSYS; source: synthetic peptide, bought: CASLO ApS) [Bap_B amyloid peptide II (aa 579 to 584)]",binds,–
